Laboratory results published in the supplement of paper PMC9112550, “Optimization of the antimicrobial peptide Bac7 by deep mutational scanning” (BMC Biology, 2022).

Tested on: Escherichia coli TOP10
Experiment: shrunken log2 fold change of peptide-encoding DNA abundance (4.5 h post-induction vs induction); higher = less antimicrobial activity (less host growth inhibition)
Settings: time post-induction: 4.5 h; library: site-saturation at positions 5, 18, 19, 20
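Note: peptides expressed intracellularly from a pBAD plasmid library in pooled LB shake-flask culture, induced with 0.3% L-arabinose, DNA abundance read by NGS, three biological replicates, DESeq2 with apeglm shrinkage.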

Sequence: RRIRTRPPRLPRPRPRPTWTPRP
- shrunken log2 fold change: -0.136

Sequence: RRIRYRPPRLPRPRPRPTSNPRP
- shrunken log2 fold change: -0.276

Sequence: RRIRYRPPRLPRPRPRPRGEPRP
- shrunken log2 fold change: -0.101

Sequence: RRIRVRPPRLPRPRPRPLCKPRP
- shrunken log2 fold change: -0.394

Sequence: RRIRVRPPRLPRPRPRPQRMPRP
- shrunken log2 fold change: 0.0511

Sequence: RRIRGRPPRLPRPRPRPCPIPRP
- shrunken log2 fold change: -0.0298

Sequence: RRIRSRPPRLPRPRPRPRAHPRP
- shrunken log2 fold change: 0.409

Sequence: RRIRGRPPRLPRPRPRPHKDPRP
- shrunken log2 fold change: 0.11

Sequence: RRIRERPPRLPRPRPRPTGNPRP
- shrunken log2 fold change: -0.267

Sequence: RRIRDRPPRLPRPRPRPFSYPRP
- shrunken log2 fold change: -0.22

Sequence: RRIRTRPPRLPRPRPRPPWCPRP
- shrunken log2 fold change: 0.28

Sequence: RRIRGRPPRLPRPRPRPFCHPRP
- shrunken log2 fold change: 0.418

Sequence: RRIRSRPPRLPRPRPRPTPQPRP
- shrunken log2 fold change: 0.388

Sequence: RRIRYRPPRLPRPRPRPRAGPRP
- shrunken log2 fold change: 0.461

Sequence: RRIRNRPPRLPRPRPRPPMNPRP
- shrunken log2 fold change: -0.0606

Sequence: RRIRMRPPRLPRPRPRPGIYPRP
- shrunken log2 fold change: -0.075

Sequence: RRIRPRPPRLPRPRPRPYIGPRP
- shrunken log2 fold change: -0.184

Sequence: RRIRCRPPRLPRPRPRPHHNPRP
- shrunken log2 fold change: -0.901

Sequence: RRIRSRPPRLPRPRPRPHFPPRP
- shrunken log2 fold change: -0.397

Sequence: RRIRQRPPRLPRPRPRPTFLPRP
- shrunken log2 fold change: -0.358

Sequence: RRIRGRPPRLPRPRPRPWLSPRP
- shrunken log2 fold change: -0.0504

Sequence: RRIRERPPRLPRPRPRPNENPRP
- shrunken log2 fold change: -0.111

Sequence: RRIRWRPPRLPRPRPRPPNLPRP
- shrunken log2 fold change: -0.24

Sequence: RRIRCRPPRLPRPRPRPWKPPRP
- shrunken log2 fold change: 0.0199

Sequence: RRIRLRPPRLPRPRPRPYFLPRP
- shrunken log2 fold change: -0.798

Sequence: RRIRCRPPRLPRPRPRPIFGPRP
- shrunken log2 fold change: -0.0692

Sequence: RRIRNRPPRLPRPRPRPAGNPRP
- shrunken log2 fold change: 0.0404

Sequence: RRIRKRPPRLPRPRPRPVCPPRP
- shrunken log2 fold change: 0.0175

Sequence: RRIRKRPPRLPRPRPRPQLCPRP
- shrunken log2 fold change: 0.129

Sequence: RRIRDRPPRLPRPRPRPCIDPRP
- shrunken log2 fold change: 0.0188

Sequence: RRIRFRPPRLPRPRPRPERMPRP
- shrunken log2 fold change: 0.124

Sequence: RRIRVRPPRLPRPRPRPRNTPRP
- shrunken log2 fold change: -0.365

Sequence: RRIRGRPPRLPRPRPRPYWRPRP
- shrunken log2 fold change: -0.104

Sequence: RRIRYRPPRLPRPRPRPVAHPRP
- shrunken log2 fold change: -0.419

Sequence: RRIRLRPPRLPRPRPRPIICPRP
- shrunken log2 fold change: 0.0147

Sequence: RRIRCRPPRLPRPRPRPKGYPRP
- shrunken log2 fold change: -0.0908

Sequence: RRIRPRPPRLPRPRPRPTFLPRP
- shrunken log2 fold change: -0.0646

Sequence: RRIRKRPPRLPRPRPRPKKGPRP
- shrunken log2 fold change: 0.368

Sequence: RRIRGRPPRLPRPRPRPQLFPRP
- shrunken log2 fold change: 0.838

Sequence: RRIRDRPPRLPRPRPRPYCNPRP
- shrunken log2 fold change: -0.137

Sequence: RRIRSRPPRLPRPRPRPAWVPRP
- shrunken log2 fold change: 0.441

Sequence: RRIRYRPPRLPRPRPRPDFDPRP
- shrunken log2 fold change: -0.0161

Sequence: RRIRCRPPRLPRPRPRPSNKPRP
- shrunken log2 fold change: -0.44

Sequence: RRIRSRPPRLPRPRPRPMAHPRP
- shrunken log2 fold change: 0.218

Sequence: RRIRHRPPRLPRPRPRPPCGPRP
- shrunken log2 fold change: 0.176

Sequence: RRIRCRPPRLPRPRPRPQTYPRP
- shrunken log2 fold change: -0.727

Sequence: RRIRKRPPRLPRPRPRPRCHPRP
- shrunken log2 fold change: 0.237

Sequence: RRIRKRPPRLPRPRPRPCFCPRP
- shrunken log2 fold change: 0.0588

Sequence: RRIRYRPPRLPRPRPRPWFTPRP
- shrunken log2 fold change: -0.165

Sequence: RRIRERPPRLPRPRPRPRSSPRP
- shrunken log2 fold change: 0.116

Sequence: RRIRYRPPRLPRPRPRPWFSPRP
- shrunken log2 fold change: -0.346

Sequence: RRIRERPPRLPRPRPRPTCYPRP
- shrunken log2 fold change: -0.673

Sequence: RRIRPRPPRLPRPRPRPMLHPRP
- shrunken log2 fold change: -0.0917

Sequence: RRIRARPPRLPRPRPRPMDFPRP
- shrunken log2 fold change: 2.73

Sequence: RRIRFRPPRLPRPRPRPRKDPRP
- shrunken log2 fold change: -0.302

Sequence: RRIRHRPPRLPRPRPRPSGSPRP
- shrunken log2 fold change: -0.175

Sequence: RRIRTRPPRLPRPRPRPDPFPRP
- shrunken log2 fold change: -0.0199

Sequence: RRIRTRPPRLPRPRPRPNYRPRP
- shrunken log2 fold change: -0.0168

Sequence: RRIRPRPPRLPRPRPRPDTPPRP
- shrunken log2 fold change: 0.0412

Sequence: RRIRLRPPRLPRPRPRPDFRPRP
- shrunken log2 fold change: 0.0254

Sequence: RRIRWRPPRLPRPRPRPESWPRP
- shrunken log2 fold change: 1.05

Sequence: RRIRLRPPRLPRPRPRPMEWPRP
- shrunken log2 fold change: -0.0102

Sequence: RRIRRRPPRLPRPRPRPWMHPRP
- shrunken log2 fold change: 0.103

Sequence: RRIRRRPPRLPRPRPRPDSSPRP
- shrunken log2 fold change: -0.118

Sequence: RRIRCRPPRLPRPRPRPKTAPRP
- shrunken log2 fold change: 0.39

Sequence: RRIRDRPPRLPRPRPRPKTDPRP
- shrunken log2 fold change: -0.314

Sequence: RRIRSRPPRLPRPRPRPWNVPRP
- shrunken log2 fold change: -0.346

Sequence: RRIRDRPPRLPRPRPRPVMTPRP
- shrunken log2 fold change: 0.374

Sequence: RRIRFRPPRLPRPRPRPENAPRP
- shrunken log2 fold change: 0.402

Sequence: RRIRQRPPRLPRPRPRPQLQPRP
- shrunken log2 fold change: 0.112

Sequence: RRIRIRPPRLPRPRPRPPTPPRP
- shrunken log2 fold change: 0.238

Sequence: RRIRQRPPRLPRPRPRPLKMPRP
- shrunken log2 fold change: -0.269

Sequence: RRIRFRPPRLPRPRPRPNDPPRP
- shrunken log2 fold change: -0.226

Sequence: RRIRLRPPRLPRPRPRPDGPPRP
- shrunken log2 fold change: 0.0394

Sequence: RRIRDRPPRLPRPRPRPQRIPRP
- shrunken log2 fold change: -0.142

Sequence: RRIRVRPPRLPRPRPRPNNNPRP
- shrunken log2 fold change: -0.661

Sequence: RRIRQRPPRLPRPRPRPPIQPRP
- shrunken log2 fold change: -0.164

Sequence: RRIRIRPPRLPRPRPRPMIHPRP
- shrunken log2 fold change: -0.363

Sequence: RRIRIRPPRLPRPRPRPKWYPRP
- shrunken log2 fold change: -0.22

Sequence: RRIRVRPPRLPRPRPRPFPKPRP
- shrunken log2 fold change: -0.0266

Sequence: RRIRKRPPRLPRPRPRPIRTPRP
- shrunken log2 fold change: 0.416

Sequence: RRIRCRPPRLPRPRPRPGHFPRP
- shrunken log2 fold change: -0.217

Sequence: RRIRWRPPRLPRPRPRPDIGPRP
- shrunken log2 fold change: -0.0157

Sequence: RRIRYRPPRLPRPRPRPVIHPRP
- shrunken log2 fold change: -0.0643

Sequence: RRIRARPPRLPRPRPRPMKRPRP
- shrunken log2 fold change: 0.223

Sequence: RRIRMRPPRLPRPRPRPNWNPRP
- shrunken log2 fold change: 0.344

Sequence: RRIRPRPPRLPRPRPRPYVYPRP
- shrunken log2 fold change: -0.636

Sequence: RRIRSRPPRLPRPRPRPPFQPRP
- shrunken log2 fold change: 0.073

Sequence: RRIRSRPPRLPRPRPRPMTAPRP
- shrunken log2 fold change: -0.0379

Sequence: RRIRWRPPRLPRPRPRPASNPRP
- shrunken log2 fold change: -0.0347

Sequence: RRIRVRPPRLPRPRPRPIWGPRP
- shrunken log2 fold change: 0.0376

Sequence: RRIRYRPPRLPRPRPRPPMYPRP
- shrunken log2 fold change: -1.28

Sequence: RRIRERPPRLPRPRPRPRRTPRP
- shrunken log2 fold change: 0.176

Sequence: RRIRKRPPRLPRPRPRPWADPRP
- shrunken log2 fold change: -0.017

Sequence: RRIRVRPPRLPRPRPRPFHEPRP
- shrunken log2 fold change: 0.324

Sequence: RRIRQRPPRLPRPRPRPFCEPRP
- shrunken log2 fold change: -0.0314

Sequence: RRIRKRPPRLPRPRPRPIGRPRP
- shrunken log2 fold change: 0.015

Sequence: RRIRSRPPRLPRPRPRPESDPRP
- shrunken log2 fold change: 0.306

Sequence: RRIRPRPPRLPRPRPRPQFCPRP
- shrunken log2 fold change: -0.153

Sequence: RRIRQRPPRLPRPRPRPARNPRP
- shrunken log2 fold change: 0.298

Sequence: RRIRPRPPRLPRPRPRPNFIPRP
- shrunken log2 fold change: -0.215

Sequence: RRIRHRPPRLPRPRPRPIRKPRP
- shrunken log2 fold change: -0.583

Sequence: RRIRPRPPRLPRPRPRPHEVPRP
- shrunken log2 fold change: -0.0664

Sequence: RRIRVRPPRLPRPRPRPEFMPRP
- shrunken log2 fold change: -0.0942

Sequence: RRIRNRPPRLPRPRPRPSCNPRP
- shrunken log2 fold change: -0.485

Sequence: RRIRGRPPRLPRPRPRPPDPPRP
- shrunken log2 fold change: 1.57

Sequence: RRIRFRPPRLPRPRPRPNPDPRP
- shrunken log2 fold change: -0.0966

Sequence: RRIRWRPPRLPRPRPRPGRLPRP
- shrunken log2 fold change: -0.0636

Sequence: RRIRIRPPRLPRPRPRPSLSPRP
- shrunken log2 fold change: -0.692

Sequence: RRIRVRPPRLPRPRPRPHKTPRP
- shrunken log2 fold change: -0.127

Sequence: RRIRPRPPRLPRPRPRPKPEPRP
- shrunken log2 fold change: 0.311

Sequence: RRIRNRPPRLPRPRPRPNYKPRP
- shrunken log2 fold change: -0.827

Sequence: RRIRLRPPRLPRPRPRPVWAPRP
- shrunken log2 fold change: 0.424

Sequence: RRIRWRPPRLPRPRPRPPAIPRP
- shrunken log2 fold change: 0.178

Sequence: RRIRRRPPRLPRPRPRPPQLPRP
- shrunken log2 fold change: 1.02

Sequence: RRIRFRPPRLPRPRPRPAALPRP
- shrunken log2 fold change: -0.0867

Sequence: RRIRERPPRLPRPRPRPECSPRP
- shrunken log2 fold change: -0.0948

Sequence: RRIRLRPPRLPRPRPRPWMHPRP
- shrunken log2 fold change: 0.0873

Sequence: RRIRARPPRLPRPRPRPLPGPRP
- shrunken log2 fold change: 0.467

Sequence: RRIRVRPPRLPRPRPRPNCWPRP
- shrunken log2 fold change: 0.0329

Sequence: RRIRYRPPRLPRPRPRPERYPRP
- shrunken log2 fold change: 0.11

Sequence: RRIRFRPPRLPRPRPRPQPPPRP
- shrunken log2 fold change: 0.94

Sequence: RRIRTRPPRLPRPRPRPVYCPRP
- shrunken log2 fold change: -0.301

Sequence: RRIRFRPPRLPRPRPRPQNNPRP
- shrunken log2 fold change: -0.656

Sequence: RRIRTRPPRLPRPRPRPCDMPRP
- shrunken log2 fold change: -0.729

Sequence: RRIRSRPPRLPRPRPRPTTEPRP
- shrunken log2 fold change: 0.014

Sequence: RRIRHRPPRLPRPRPRPGARPRP
- shrunken log2 fold change: 0.335

Sequence: RRIRFRPPRLPRPRPRPYSFPRP
- shrunken log2 fold change: -0.967

Sequence: RRIRDRPPRLPRPRPRPRAFPRP
- shrunken log2 fold change: -0.2

Sequence: RRIRWRPPRLPRPRPRPKPWPRP
- shrunken log2 fold change: 0.515

Sequence: RRIRRRPPRLPRPRPRPAEMPRP
- shrunken log2 fold change: 0.219

Sequence: RRIRHRPPRLPRPRPRPNVLPRP
- shrunken log2 fold change: -0.0715

Sequence: RRIRWRPPRLPRPRPRPETVPRP
- shrunken log2 fold change: -0.0769

Sequence: RRIRKRPPRLPRPRPRPTDHPRP
- shrunken log2 fold change: 0.375

Sequence: RRIRKRPPRLPRPRPRPLAEPRP
- shrunken log2 fold change: 1.11

Sequence: RRIRVRPPRLPRPRPRPMFFPRP
- shrunken log2 fold change: -0.333

Sequence: RRIRCRPPRLPRPRPRPYGNPRP
- shrunken log2 fold change: -0.277

Sequence: RRIRKRPPRLPRPRPRPEAPPRP
- shrunken log2 fold change: 0.957

Sequence: RRIRSRPPRLPRPRPRPWKVPRP
- shrunken log2 fold change: -0.173

Sequence: RRIRGRPPRLPRPRPRPIIGPRP
- shrunken log2 fold change: -0.0822

Sequence: RRIRARPPRLPRPRPRPCIDPRP
- shrunken log2 fold change: 0.306

Sequence: RRIRSRPPRLPRPRPRPFNIPRP
- shrunken log2 fold change: -0.109

Sequence: RRIRSRPPRLPRPRPRPQYGPRP
- shrunken log2 fold change: -0.118

Sequence: RRIRCRPPRLPRPRPRPEDMPRP
- shrunken log2 fold change: 0.176

Sequence: RRIRFRPPRLPRPRPRPFIHPRP
- shrunken log2 fold change: -0.724

Sequence: RRIRRRPPRLPRPRPRPVKTPRP
- shrunken log2 fold change: 0.05

Sequence: RRIRTRPPRLPRPRPRPRTMPRP
- shrunken log2 fold change: 0.0616

Sequence: RRIRLRPPRLPRPRPRPDDLPRP
- shrunken log2 fold change: -0.0581

Sequence: RRIRARPPRLPRPRPRPEMDPRP
- shrunken log2 fold change: 0.41

Sequence: RRIRVRPPRLPRPRPRPVPCPRP
- shrunken log2 fold change: -0.162
